From patent publication US20030228258A1 come the findings set out here.

In assay [1] the target is T cell receptors of the mouse p60217-225-specific CD8+ T cell line (mouse). In words: flow cytometry, tetramer staining of CD8+ T cell line. Background: A flow cytometer gives signals particle by particle.
The target of assay [2] is T cell receptors of the human Flu-specific (Flu58-66) CD8+ T cell line (human). In words: flow cytometry, tetramer staining at 37 C, 24 h incubation.
Assay [3] shares this target. Nature of the assay: flow cytometry, tetramer staining at 37 C, 8 h incubation.
Assay [4] has the same target. In words: flow cytometry, tetramer staining of CD8+ T cell line.
For assay [5] the target is unchanged. In words: flow cytometry, tetramer staining at 37 C, column headed 2 h.
For assay [6] the target is unchanged. In words: flow cytometry, tetramer staining at 37 C, 1 h incubation.
Assay [7] has as its target T cell receptors of the mouse LLO91-99-specific CD8+ T cell line (mouse). In words: flow cytometry, tetramer staining at 37 C, 8 h incubation.
For assay [8] the target is unchanged. Nature of the assay: flow cytometry, tetramer staining of CD8+ T cell line.
Assay [9] has the same target. In words: flow cytometry, tetramer staining at 37 C, column headed 2 h.
Assay [10] shares this target. Nature of the assay: flow cytometry, tetramer staining at 37 C, 1 h incubation.
Assay [11] addresses T cell receptors of the mouse p60217-225-specific CD8+ T cell line (mouse). In words: cell-based or functional assay.
The target of assay [12] is T cell receptors of the mouse LLO91-99-specific CD8+ T cell line (mouse). In words: cell-based or functional assay.

In turn, “p60217-225/H-2K^d tetramer (from UniProt P61769 21-119; P22629 37-163; P01902 22-305) (peptide-MHC)” gave a % of CD8+ T cells stained positive for the tetramer in [1] of 70%.
With “LMP1/HLA-A2 tetramer (PE- or FITC-streptavidin, non-radiolabeled) (from UniProt P61769 21-119; P22629 37-163) (peptide-MHC)”, the % tetramer binding of CD8+ T cells was 1% in [2], 1.5% in [3], 1.2% in assay [5] and 0.9% in assay [6]. The substance further yielded a % of CD8+ T cells stained with the tetramer in assay [4] of 1%.
For the substance “LLO91-99/H-2K^d tetramer (fluorescent, non-radiolabeled) (from UniProt P61769 21-119; P22629 37-163; P01902 22-305) (peptide-MHC)”, the % tetramer binding of CD8+ T cells is 63% in assay [7], 75% in [9] and 76% in assay [10]. Moreover, the % of CD8+ T cells stained with the tetramer in assay [1] stood at 1.3%. Also, the % of CD8+ T cells that bound the tetramer in [8] is 76%.
As for “225Ac-labeled LLO91 tetramer (225Ac-DOTA-biotin, LLO91/H-2K^d monomers, streptavidin) (from UniProt P61769 21-119; P22629 37-163; P01902 22-305) (peptide-MHC)”, in assay [11], the IFN-γ ELISPOT, spots, non-treated vs treated with 10 nCi/ml for 72 hr (specific IFN-γ spots (treated)) came to 105 and the cell killing (ED50) was 100 to 200 nCi/ml. Moreover, in [12], the IFN-γ ELISPOT, spots, non-treated vs treated with 10 nCi/ml for 72 hr (specific IFN-γ spots (treated)) amounted to 83 and the cell killing (ED50) fell in the range of 4 to 8 nCi/ml.
